Assay results: patent US20210177983A1

Target: TNF-α (UniProt P01375)
Test: cell-based or functional assay

UniProt P01375, sequence (P01375 77-233 limits assumed): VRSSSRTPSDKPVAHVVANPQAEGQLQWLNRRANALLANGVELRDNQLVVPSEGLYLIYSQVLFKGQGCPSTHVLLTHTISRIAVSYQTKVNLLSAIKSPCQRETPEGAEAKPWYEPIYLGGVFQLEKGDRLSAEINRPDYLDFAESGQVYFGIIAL

TNF-R2 scCLCH1-Fc (Fc fusion) showed an IC50 of inhibition of activation of the SEAP reporter gene in HEK-Blue TNF-α cells (235 pM TNF-α) of 51 pM.
